# Measurements reported in patent publication US20120130045A1, “BIOMOLECULE-POLYMER CONJUGATES AND METHODS OF MAKING SAME” (ABLITECH, INC., priority 2009, published 2012).
# Assays:
# [1] = tested on: DNase I; experiment: DNase I digestion monitored by TLC; type: in vitro ADME; conditions: for DNase I digestion after six hours (TLC, FIG. 6): model oligonucleotide
# From the text: Nucleases and proteases are common and result in extremely short half-life for biomolecules not protected from the in vivo environment. In addition, carboxylesterases (CES) are known to be present in many cancerous tumor cells. Therefore, the ability of the biomolecule-polymer conjugates of the disclosure to withstand degradation in the presence of fetal calf serum (FCS) and either DNase I, or 51 nuclease is investigated, as well as the ability of carboxylesterase 1 to degrade the biomolecule-polymer conjugates and release the biomolecule.
# Concentrations of treatments were as follows: FCS (30%), DNase I (30 units), 51 nuclease (10 units). Digestions were conducted at 37° C. and monitored by either thin layer chromatography or gel electrophoresis.
# [2] = tested on: bacterial 16S ribosomal RNA gene; experiment: PCR amplification with 8F primer conjugates, gel electrophoresis; type: biochemical
# From the text: The retention and recovery of the original functionality of the biomolecule is a characteristic of the conjugates of the disclosure. In order to test the ability of an oligonucleotide-polymer conjugate of the disclosure to functionally bind its complementary sequence, PCR primers were utilized. The universal bacterial primers 8F (5′-[…]-3′, SEQ ID NO:2) and 1392R (5′-ACGGGCGGTGTGTACA-3′, SEQ ID NO:3) were used to amplify a portion of the bacterial 16S ribosomal RNA gene. The 8F primer conjugated to MPEG-550 networked with MPEG-550 were prepared according to Examples 7 and 9 above, and subjected to DNase I degradation studies.
# The MPEG550 conjugate and the MPEG550-networked-conjugate were then treated with NH4OH to release the PCR primers from the MPEG550 via chemical degradation and PCR amplification was then performed. Each 50-μl PCR mixture contained 1 μl template DNA (either E. coli. or an environmental isolate belonging to the genus Streptomonospora), 2 U Taq DNA polymerase (Eppendorf), 1×Taq buffer, […] Mg(OAc)2, 1×Taq Master PCR Enhancer, each deoxynucleoside triphosphate at a concentration of 20 μM, and each primer at a concentration of 0.4 μM. The PCR conditions were 85° C. for 5 min, 30 cycles of 94° C. for 45 s, 55° C. for 1 min, and 72° C. for 90 s, with a final 7 min extension at 72° C.
Substance,"DNase I digestion after one hour (TLC, FIG. 9) ([1]; 8F PCR primer conjugates, DNase I, one hour)",PCR amplification product after NH4OH treatment (1% agarose gel) ([2]; conjugate cleaved in NH4OH for 15 minutes and 18 hours before PCR),"PCR amplification product (1% agarose gel) ([2]; each primer 0.4 μM, with 1392R primer, 30 cycles)","DNase I digestion after one hour (TLC, FIG. 5) ([1]; DNase I 30 units, 37° C., one hour, model oligonucleotide of Example 1)","DNase I digestion after six hours (TLC, FIG. 6) ([1]; DNase I 30 units, 37° C.)","DNase I digestion after 3 hours following NH4OH treatment (TLC, FIG. 7) ([1]; conjugate treated with NH4OH to cleave the L-X bond, then DNase I, 3 hours)"
"MPEG550 conjugate: universal bacterial 8F PCR primer (SEQ ID NO:2) conjugated to MPEG-550 according to Example 7 (DNA AGAGTTTGATCCTGGCTCAG; primer conjugated to MPEG-550, position not given here)",resistant to nuclease degradation,yielded the appropriate size amplification product,functional and yielded the appropriate size amplification product,,,
"oligonucleotide-MPEG conjugate: model oligonucleotide of Example 1 (SEQ ID NO:1) conjugated to MPEG550 (methoxy-terminated PEG, MW 550) (TTTTATTTTATTTTATTTTA; DNA, backbone not given here; conjugated to MPEG550 via propargyl chloroformate chemistry, further chemistry not fully specified)",,,,resistant to DNase I treatment,remained intact,allowed for degradation by DNase I
"5′-TTTTATTTTATTTTATTTTA-3′ (model oligonucleotide, sugar chemistry not given here, further chemistry not given here) [native model oligonucleotide, reference compound]",,,,,completely digested,
